Reference: the supplement of paper PMC12338614
± gives the uncertainty stated by the source.

B1: library; numbered along this chain (parent)
chain: MEVVDPQQLGMFTEGELMSVGMDTFIHRIDSTEVIYQPRRKRAKLIGKYLMGDLLGEGSYGKVKEVLDSETLCRRAVKILKKKKLRRIPNGEANVKKEIQLLRRLRHKNVIQLVDVLYNEEKQKMYMVMEYCVCGMQEMLDSVPEKRFPVCQAHGYFCQLIDGLEYLHSQGIVHKDIKPGNLLLTTGGTLKISDLGVAEALHPFAADDTCRTSQGSPAFQPPEIANGLDTFSGFKVDIWSAGVTLYNITTGLYPFEGDNIYKLFENIGKGSYAIPGDCGPPLSDLLKGMLEYEPAKRFSIRQIRQHSWFRKKHPPAEAPVPIPPSPDTKDRWRSMTVVPYLEDLHGADEDEDLFDIEDDIIYTQDFTVPGQVPEEEASHNGQRRGLPKAVCMNGTEAAQLSTKSRAEGRAPNPARKACSASSKIRRLSACKQQ

Variants of: B1
Assay: STK11 functional score (HeLa growth suppression), rescaled enrichment; synonymous median = 1, nonsense median = 0 (normalised score)
Settings: with HeLa; variant type: missense
Experimental: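 Deep mutational scan (TileSeq/POPCode codon randomisation) of full-length codon-optimised STK11 cDNA integrated at a Bxb1 landing pad (AAVS1) in HeLa cells. Restoring functional STK11 suppresses HeLa proliferation. Variant frequencies were measured by NGS before and after about two weeks of growth. The error-corrected enrichment log-ratio was rescaled so that synonymous median = 1 and nonsense median = 0, scores above 1 were compressed, and codon-level and three biological replicate scores were combined; error is the bootstrapped standard error. Scale: synonymous median = 1, nonsense median = 0; below 0.5 = damaging.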

Row | Variant | STK11 functional score
1 | I88W | 0.401 ± 0.49
2 | G187A | 1.09 ± 0.18
3 | I361D | 1.5 ± 0.17
4 | E145I | 1.14 ± 0.082
5 | E145D | 1.11 ± 0.28
6 | K235L | 1.24 ± 0.18
7 | L386T | 1.6 ± 0.29
8 | L386S | 1.45 ± 0.24
9 | L386G | 1.19 ± 0.34
10 | V338W | 0.683 ± 0.13
11 | I161N | 0.158 ± 0.13
12 | I161G | 0.264 ± 0.092
13 | L195T | 1.67 ± 0.15
14 | L195A | 1.17 ± 0.39
15 | Y156M | 1.69 ± 0.25
16 | P323A | 1.15 ± 0.28
17 | M136Q | 0.0397 ± 0.082
18 | G346V | 0.838 ± 0.7
19 | P89E | 1.68 ± 0.19
20 | P89L | 0.532 ± 0.24
21 | T395C | 1.61 ± 0.23

Row | Variant | STK11 functional score
22 | E138M | 1.27 ± 0.18
23 | E138N | 0.232 ± 0.14
24 | S334L | 1.24 ± 0.18
25 | S334H | 1.05 ± 0.61
26 | N380F | 1.06 ± 0.12
27 | G257I | 1.66 ± 0.44
28 | A206T | 0.479 ± 0.13
29 | A153W | -0.261 ± 0.095
30 | Y292M | 1.64 ± 0.31
31 | Y292C | 0.438 ± 0.15
32 | K287L | 0.865 ± 0.14
33 | P373Q | 1.55 ± 0.27
34 | S428V | 1.56 ± 0.28
35 | S428G | 1.6 ± 0.32
36 | M51H | 1.68 ± 0.32
37 | R383T | 1.56 ± 0.24
38 | P321M | 1.61 ± 0.27
39 | G91I | 1.63 ± 0.22
40 | G91V | 0.481 ± 0.08
41 | G242C | -0.0194 ± 0.091
42 | V114A | 0.829 ± 0.086

Row | Variant | STK11 functional score
43 | V114T | 1.43 ± 0.086
44 | S69V | 0.644 ± 0.16
45 | P324C | 1.33 ± 0.41
46 | P324R | 1.17 ± 0.15
47 | V77G | 0.0665 ± 0.079
48 | V77T | 1.57 ± 0.19
49 | R106L | 1.15 ± 0.081
50 | V243N | 0.56 ± 0.19
51 | V243C | 1 ± 0.099
52 | S299V | 0.978 ± 0.26
53 | I177R | -0.0129 ± 0.087
54 | C430F | 1.48 ± 0.14
55 | N109S | 0.492 ± 0.18
56 | N109P | -0.121 ± 0.086
57 | N109V | 0.132 ± 0.083
58 | N109R | 0.707 ± 0.08
59 | P144A | 1.08 ± 0.21
60 | E342L | 1.26 ± 0.25
61 | I46G | 0.857 ± 0.11
62 | I46E | 1.57 ± 0.41
63 | Q382Y | 1.28 ± 0.22

Row | Variant | STK11 functional score
64 | E199W | 0.303 ± 0.12
65 | E199G | 1.07 ± 0.44
66 | L80Q | 1.45 ± 0.09
67 | L80W | 1.47 ± 0.25
68 | P280K | 1.67 ± 0.19
69 | P280V | 1.41 ± 0.096
70 | S240V | 0.33 ± 0.1
71 | R304Y | -0.17 ± 0.25
72 | Q371S | 1.32 ± 0.15
73 | M129D | 1.37 ± 0.36
74 | T328P | 1.57 ± 0.16
75 | N119D | 0.736 ± 0.88
76 | G251D | 0.751 ± 0.47
77 | Q112M | 0.897 ± 0.28
78 | K269N | 1.23 ± 0.35
79 | K269C | 1.09 ± 0.35
80 | M125D | 0.704 ± 0.082
81 | M125Y | 1.31 ± 0.52
82 | I267W | 0.777 ± 0.086
83 | I267D | 0.629 ± 0.22
